The test system of series [1] is Pab1 (Saccharomyces cerevisiae). As to the kind of experiment: EMSA. Particulars: EMSA: native 8% PAGE in THEM buffer (34 mM Tris base, 57 mM Hepes, 0.1 mM EDTA, 2.5 mM MgCl2); binding buffer salt, pH and temperature not given in the ….
Series [2] concerns Sbp1 (Saccharomyces cerevisiae). As to the kind of experiment: EMSA. Particulars: Hill coefficient 2.1 +/- 0.1; EMSA: native 8% PAGE in THEM buffer (34 mM Tris base, 57 mM Hepes, 0.1 mM EDTA, 2.5 mM MgCl2); binding buffer salt, pH and temperature not given in the ….
The test system of series [3] is Sbp1RRM1 (Saccharomyces cerevisiae). As to the kind of experiment: EMSA. Particulars: EMSA: native 8% PAGE in THEM buffer (34 mM Tris base, 57 mM Hepes, 0.1 mM EDTA, 2.5 mM MgCl2); binding buffer salt, pH and temperature not given in the ….
For series [4], the system named is Sbp1RGG (Saccharomyces cerevisiae). Kind of series: EMSA. As to conditions: EMSA: native 8% PAGE in THEM buffer (34 mM Tris base, 57 mM Hepes, 0.1 mM EDTA, 2.5 mM MgCl2); binding buffer salt, pH and temperature not given in the ….
Series [5] has as its system Sbp1RRM2 (Saccharomyces cerevisiae). As to the kind of experiment: EMSA. As to conditions: EMSA: native 8% PAGE in THEM buffer (34 mM Tris base, 57 mM Hepes, 0.1 mM EDTA, 2.5 mM MgCl2); binding buffer salt, pH and temperature not given in the ….
In series [6] the target is T1, C-terminal TAP-tagged eIF4G1 (S. cerevisiae, UniProt P39935 1-952).
T1 construct: eIF4G1, translation initiation factor of S. cerevisiae; the TAP tag was inserted at the end of the eIF4G1 gene in its chromosome locus; also called eIF4G1-TAP; source: RNase A and 1 M KCl wash to remove endogenous RNAs
T1 sequence (looked up): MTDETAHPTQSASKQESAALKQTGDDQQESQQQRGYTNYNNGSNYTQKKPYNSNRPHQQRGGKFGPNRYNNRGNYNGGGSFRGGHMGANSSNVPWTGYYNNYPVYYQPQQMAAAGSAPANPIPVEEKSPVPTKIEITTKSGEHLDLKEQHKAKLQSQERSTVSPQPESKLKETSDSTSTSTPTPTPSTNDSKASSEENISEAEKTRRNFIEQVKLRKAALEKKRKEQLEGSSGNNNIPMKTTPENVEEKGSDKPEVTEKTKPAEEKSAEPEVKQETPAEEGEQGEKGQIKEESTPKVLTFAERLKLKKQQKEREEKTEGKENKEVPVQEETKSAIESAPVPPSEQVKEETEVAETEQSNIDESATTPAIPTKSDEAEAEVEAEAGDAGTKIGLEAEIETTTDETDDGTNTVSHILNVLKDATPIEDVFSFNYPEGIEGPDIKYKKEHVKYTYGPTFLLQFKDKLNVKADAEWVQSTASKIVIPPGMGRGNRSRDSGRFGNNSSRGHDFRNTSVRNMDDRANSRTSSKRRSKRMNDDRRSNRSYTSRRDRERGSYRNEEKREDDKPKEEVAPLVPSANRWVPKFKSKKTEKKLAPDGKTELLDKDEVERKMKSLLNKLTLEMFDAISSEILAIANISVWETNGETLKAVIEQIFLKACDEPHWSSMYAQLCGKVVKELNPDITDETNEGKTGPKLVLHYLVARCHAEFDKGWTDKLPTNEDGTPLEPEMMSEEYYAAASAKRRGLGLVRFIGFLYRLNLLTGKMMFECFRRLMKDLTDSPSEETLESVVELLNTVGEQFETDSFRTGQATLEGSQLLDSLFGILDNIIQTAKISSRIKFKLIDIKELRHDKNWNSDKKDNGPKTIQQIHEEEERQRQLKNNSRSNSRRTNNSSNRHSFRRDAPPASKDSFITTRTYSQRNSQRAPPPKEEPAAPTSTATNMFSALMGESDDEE
Kind of series: pull-down; IgG-pulldown: eIF4G1-TAP with purified Pab1 and Sbp1 (or Sbp1^m) in the presence of 10x 5′UTR_Pab1 RNA. Particulars: both partners purified.

Series [7] deals with Pab1 (purified, as added in the IgG-pulldown and EMSA) (S. cerevisiae) (UniProt P04147).

5'UTRPab1: the dissociation constant (Kd) came out at 31.2 nM in series [1]; 26.5 nM in series [2]; 1100 nM in series [3]; 2700 nM in series [4]; 900 nM in series [5].

B1: Pab1 (purified, as added in the IgG-pulldown and EMSA) (natural protein, S. cerevisiae, UniProt P04147 1-577, looked up)
chain: MADITDKTAEQLENLNIQDDQKQAATGSESQSVENSSASLYVGDLEPSVSEAHLYDIFSPIGSVSSIRVCRDAITKTSLGYAYVNFNDHEAGRKAIEQLNYTPIKGRLCRIMWSQRDPSLRKKGSGNIFIKNLHPDIDNKALYDTFSVFGDILSSKIATDENGKSKGFGFVHFEEEGAAKEAIDALNGMLLNGQEIYVAPHLSRKERDSQLEETKAHYTNLYVKNINSETTDEQFQELFAKFGPIVSASLEKDADGKLKGFGFVNYEKHEDAVKAVEALNDSELNGEKLYVGRAQKKNERMHVLKKQYEAYRLEKMAKYQGVNLFVKNLDDSVDDEKLEEEFAPYGTITSAKVMRTENGKSKGFGFVCFSTPEEATKAITEKNQQIVAGKPLYVAIAQRKDVRRSQLAQQIQARNQMRYQQATAAAAAAAAGMPGQFMPPMFYGVMPPRGVPFNGPNPQQMNPMGGMPKNGMPPQFRNGPVYGVPPQGGFPRNANDNNQFYQQKQRQALGEQLYKKVSAKTSNEEAAGKITGMILDLPPQEVFPLLESDELFEQHYKEASAAYESFKKEQEQQTEQA
notes: it may be the same molecule as m1
On to B1, for which, in series [6], the binding result is recorded as “binds”.

B2: Sbp1 (natural protein)
chain: MSAEIEEATNAVNNLSINDSEQQPRAPTHKTVIDPEDTIFIGNVAHECTEDDLKQLFVEEFGDEVSVEIPIKEHTDGHIPASKHALVKFPTKIDFDNIKENYDTKVVKDREIHIKRARTPGQMQRGGFRGRGGFRGRGGFRGGFRGGYRGGFRGRGNFRGRGGARGGFNGQKREKIPLDQMERSKDTLYINNVPFKATKEEVAEFFGTDADSISLPMRKMRDQHTGRIFTSDSANRGMAFVTFSGENVDIEAKAEEFKGKVFGDRELTVDVAVIRPENDEEEIEQETGSEEKQE
With B2, the cap-dependent translation initiation activity of the 5′UTR Pab1 luciferase reporter in yeast cell extract with an increasing amount of Sbp1 in series [7] lay in the range of 20 to 60 % decrease.

(Values after PMC5733569, “Sbp1 modulates the translation of Pab1 mRNA in a poly(A)- and RGG-dependent manner” (RNA, 2018).)
